experiment: soluble on expression in E. coli; label from the status in PepcDB or PDB records

Sequence	soluble on expression in E. coli
MGSDKIHHHHHHVSDLLSQDEIDALLHGVDDVEEEEVSDALDARAYDFSSQDRIVRGRMPTLEIVNERFARHLRISMFNMMRRAAEVSINGVQMLKFGEYVHTLFVPTSLNMVRFSPLKGTALITMEARLVFILVDNFFGGDGRFHAKIEGREFTPTERRIVQLLLKIIFEDYKEAWAPVMDVEFDYLDSEVNPAMANIVSPTEVVVVSSFHIEVDGGGGDFHITMPYSMIEPIRELLDAGVQSDTQDTDMRWSQALKDEIMDVEVGLDATIVEKEISLKDVMGFKAGDIIPVEMPEYIVLRVEDLPTYRCKLGRSRENLALNIREKIPRPETVKTELQLVTKKSKSRDLNNI	not soluble
MGSDKIHHHHHHVTAPAFLPVILAGGSGERFWPLSRKHRPKQFLTLDETGRSLLQATSDRLGRLSGSPEQVMVVTGTEYRTQVLEQLPDMPIEHLIVEPVARDTAPAVLYAALRVAQENPQAVMGVFPADHRITDAQAFGRVVRRAIEVAEITGGLVTLGVTPTFPATGYGYIQRGEQLLGGELPAFRVSRFTEKPDAETAQLFLADGRYTWNSGMFIWRVQAILAAFEQYQPDMYAQLSAAVRGSPRQVRAVFPELQKISIDYAILEKSDQVVVIPAEFGWDDLGDWNALERLLKGEGQNVAVGRHVGLDTDGAILYTTGGDGLIATIGLEDVVVVRTDEVTLVVRKDRTQDIKKVVQQLKSHPELERFA	not soluble
MGSDKIHHHHHHVTGSDTQLYPPMSTYLENHNIRYFNSFSAENLKSATPDLVVVGNAISRGNPDLEYALDQHMELISMPQLVRRELIGRHTSIVVAGTHGKTTTTSLVAWLLEAGGLLPGFLIGGIPENFGDGCRPSGLSEPGFFVTEGDEYDSAFFDKRSKFLHYRPDIAIINNVEFDHADIFDSLDDIKKSFRLLVNLVPSNGLLIVNADDPNSMEVSAKAFCRVETFGLNGNAEWTAADIATDTDGTSFTVVRDSEAIGRVKVPLFGNYNVMNALAATAAAIRAGVSFESVTRGLCSFKRPKRRMELVGEYAGGITLIEDFAHHPTAIRLTLGAIAEHYPGRRIIACFEPRSNTTSRNIFQHELSECFGDAAIVVLGKVNRPERYAPEERLDAALLCRELKANGKRVFAAGSENYPEDIVRFIEAEQQPGDVVVLLSNGSFSGLKEMLAESFQKNS	not soluble
MGSDKIHHHHHHVTIEIRQLRYALMSADLRSFSGAASRLNVKQATLSRSVLQLEDRLGIKLFERTTRGAEPTETGKVFLETARRIITDLENLQTTARAVSYGEQGRFAVGYCSSLMAGHLKAAFSDYLTRFPDVQFDGVEGDPDKLCSDLRAGTIDVAIAPLGSEEQGIASRPVWSERLVAALYPEHPLLEASRIYWGDLRREIFVVPRKGIGQMIRNMITARLTGQGYRPNIITQETSLESVLSMVPVGRFITIATEASMGVAWPELQFRDIYDNGGTARIDFALYWREDNENPALQRFFTMINERYPA	not soluble
MGSDKIHHHHHHVTPLPIVDPGPPVLYDVEHVTSYRYALPVTVSHQCAHLKPRSFATQQVLSTQLGATPLPEIRSERIDYFGNTVTSFSLSEPHESLTVVAQSQVRILPPTLPAAADTPRWEEVAERLRLGFGADTLDACQMLYPSGHVKTLPEVRAYALPSFPPDRPILEAAIDLTGRIHADFTYDPTATTVATPLAEVLAKRRGVCQDFAHLQIACLRSMGLAARYVSGYVLTCSTESGERLEGGDASHAWVSLYVPCAAAPNGGWIDLDPTNDKLITREHVTVAWGRDFEDVSPIKGVMLGGGAQTVSVAVTLRPRTNGPRARTESPA	not soluble
MGSDKIHHHHHHVYTSFYGFKAKPFQLSPDPSFFFGSKGHNRAMAYLEYGLAQAEGFIVVTGEVGAGKTTLVRNLFRQLEPEKIVAAQIVNTSLDSDDTLRMVAAAFGLPLAQGNPGKTPVLVALEKFFRQCEQQGKRALLVVDEAQNLSPQTVEELRMLSNFQGDNKSLLQTFLLGQPEFRKTLLGNDMQQLRQRITATYHLGPMDRAETKSYIEHRLKTVGWGGNPGFDEEAFDAIHQYTGGIPRRINALCDRLLLMGYLEKLQHFGVSEVNEVIRDIQQEFDAVEVEAGLLSGDKTSPLKEEQFAIGLEEMSNRIAKLEETVVSLMGLLKQILSLADVNKRLR	not soluble
MGSEIDQNDTDSSTQEWYRLLVVEKSTTLSDFMTSKRTKMVSDFPEEREEAIEEIIEVISTFPMDFLQKDEVSLLLNYFINSIESSALTGGAVIRGVHHLILKSKNLPDNFEVSLIRVLFKEGNVQSWAQKERQLQYEILIWFLKYRLSFLKGLGPDFLATFMKSVSGERDPRCLVHMFSAFLEVSNNFTLGPFTEDMFETIACYFPVEFKPQKTDTITREYLAASCASCLVSSPSFAPFCFLFIDEKLNDDDCSDEEYEDVLNLLILAYNRFPAQKKNLSLIEPLIGGIRKIGLNPKNKGEMQKYVSQAFEAVIKLCTKSSETNSKALDGIVSSIVEDSEPFVLQAEMGLCKKALTLLRSAFKSLPDKNSRQIFNQVIAWILNLIQGDSVNAAGNRADIVQEGLEYLVEWIQLASEYKELSIETLAVFEQSIFESCSRAREFKPREAITAIYECASVYFESDCASDELISQCRSYIALALRTPIDTDSDFQSLLKLIRIYSSKNFDQVEIILADNETNSWNAMKVLPVLCAISCSQRWNLLKNKIVDELGSTISSSTEISYLICYVQMMEKCKKDPQLFHQQFEVFESVLYKTDCNEPVSVSYLMQSISLLLSEDDHQKFMNQTTTRYQSLEGSSLDNFNQKYRLAYLQNKNTNDLKTIANLKLPERTIRQLFFAICNREAENENNSEIPEQHHIAEIKAKLLRNAPNSLSAFEQFLTNISGSTESPFEYLLDFDSFDSNPDRCRYETASPLWRQRIFCQIVPIFKRKFEEPGSQKHVLVEMLPHLLTFAVPLDFQQLKKQFAMLLPVLIQTIGMEDVIPSHVTRTIPMFLTISEPLQPKDLGTVVKYLCSITRDNDSNMTNLEDALNGLNILARRQPPKSLHSEVPLVVTSINKILGHKKRLLRMMAADVKNNWEMVITK	not soluble
MGSFMTDIAVIINNRAKNAHRMEDYLSELRAHDIDYQLYKADPQQLEKNIQHCCSKYPLLLIGGGDGTVRSAAQWCSNTSVILGVLPLGTMNHFSKELNLPSTTEELIAAIVEKTTTTIDVAEVNGH	not soluble
MGSSHHHHHHGGTGENLYFQGGSGKNYFYIPIADDMHCHLRQGDMLDFTVNSIRRGGCNRVLVMPNTHPIISTCSDAQKYLYQLKSRDDDIEYLMTLYLNKNTDENDILSNYYKCNLQGVKIYPSNVTTNSSDGITSLEPYYKVFHALEKLNKSIHIHCEEPNINPLYAEEKYLPHIHDLAIKFPGLNIVLEHISSSESINVIKEFRNVAGSITPHHLYLTIDDVVNMDIYDHAIDNTYIEKYIKNTYHYCKPLPKLLEDKIALQDVIKDDFPRVFLGSDSAPHYKVMKRKPYYKPGIYTQPFLINYVAHILNKFDALDKMENFTSKNASLFLNLAEKKKLAKYYICVEKHPFKLPREYNGVVPFLAGKTLDYDIHYVSKF	not soluble
MGSSHHHHHHGGTGENLYFQGGSGLLMRSSSPAATVQATHQRVQSAQERHVRREYASDVNTPRALSVRSSRGGSFAFAPQVQEKYNTMNILVLGAPQVGKSLFINSYRAAITNTTRWPAAPVGISGFYGTTTVAPFPNHARQPTWLCIDTPGSLYTEKHAVLLEKLTEGMPWKTKLKGPNALTLRQIKDISPIAANKAHQCIIVVPATDLIEDDGLINTLLWRNRYRPAGGVADIIFYLKGLISSLRTLMDDASPFVVVTKMDKVGGARNSSACAALVSILGQCVPVNHVYFTAAVENRALLATGRTMVLESSTKQNLVRLHEDICLAVQWRNQVDAM	not soluble
MGSSHHHHHHGGTGENLYFQGGSGMAYRHQATDQFHRFLHNPHVVQPDGVDGLPRVKGDQQQWLNTEQWHGYSDTYLQRHMQYPATVELNNPAVNARHDLLYECLGLVYELYGGLAEDLQELHDDPLHPHFHRRIARIKRDRERIATELDKRYAKLHPTVKTVYDAFLVRRYYHLADWIEHVERKRERLINDLSPDVMEKTMRMRGIAEQYLRHLRALEHALYEDPLMGLLGGDRGTNVLDQYTPGELAMLRQKAAYFRNMRRFGANQLDADMHTH	soluble
MGSSHHHHHHGGTGENLYFQGGSGMKGVTSFTVYGLVPAADFQRCAEAAAYVNDKYPESYAVIVKLELPRDFAERRAAWASAGHLPSQQQQPTDASFGESGGSATTASTAAAELAAVLVEQHGSDSEPQCLLTAETFLHNIATHTDYKPDATEDYYTARGKRAWRAFLASRGRQYCWMDVSVDGVAVGRVWFELYASVAPLTCKNFCELCRGTTVAMGDTVAHSSVFDPPPAQHIGYKGTTFFRTLKDAWVMGGDVTGAHSGNGGYSCYGRCFPDETYAVPHDAAGILGMCNDGPHTSSSAFYITLRPMSWMNGKYVAFGRVMDGMHVVDAIHAVEARHNQAPKASIVITDCDVLDTSV	soluble
MGSSHHHHHHNFYDSDPHISELTPKSFDKAIHNTNYTSLVEFYAPWCGHCKKLSSTFRKAAKRLDGVVQVAAVNCDLNKNKALCAKYDVNGFPTLMVFRPPKIDLSKPIDNAKKSFSAHANEVYSGARTLAPIVDFSLSRIRSYVKKFVRIDTLGSLLRKSPKLSVVLFSKQDKISPVYKSIALDWLGKFDFYSISNKKLKQLTDMNPTYEKTPEIFKYLQKVIPEQRQSDKSKLVVFDADKDKFWEYEGNSINKNDISKFLRDTFSITPNEGPFSRRSEYIAYLKTGKKPIKKNHSS	soluble
MGSSHHHHHHSSGLEVLFQGPHMSYQVLARKWRPQTFADVVGQEHVLTALANGLSLGRIHHAYLFSGTRGVGKTSIARLLAKGLNCETGITATPCGVCDNCREIEQGRFVDLIEIDAASRTKVEDTRDLLDNVQYAPARGRFKVYLIDEVHMLSRHSFNALLKTLEEPPEHVKFLLATTDPQKLPVTILSRCLQFHLKALDVEQIRHQLEHILNEEHIAHEPRALQLLARAAEGSLRDALSLTDQAIASGDGQVSTQAVSAMLGTLDDDQALSLVEAMVEANGERVMALINEAAARGIEWEALLVEMLGLLHRIAMVQLSPAALGNDMAAIELRMRELARTIPPTDIQLYYQTLLIGRKELPYAPDRRMGVEMTLLRALAFHPRMPLPEPEVPRQ	soluble
MGSSHHHHHHSSGLVPRGSHMEAPAAVVTGAAKRIGRAIAVKLHQTGYRVVIHYHNSAEAAVSLADELNKERSNTAVVCQADLTNSNVLPASCEEIINSCFRAFGRCDVLVNNASAFYPTPLVQGDHEDNSNGKTVETQVAELIGTNAIAPFLLTMSFAQRQKGTNPNCTSSNLSIVNLCDAMVDQPCMAFSLYNMGKHALVGLTQSAALELAPYGIRVNGVAPGVSLLPVAMGEEEKDKWRRKVPLGRREASAEQIADAVIFLVSGSAQYITGSIIKVDGGLSLVHA	soluble
MGSSHHHHHHSSGLVPRGSHMGSSHHHHHHSSGLVPRGSHMSQLAHNLTLSIFDPVANYRAARIICTIGPSTQSVEALKGLIQSGMSVARMNFSHGSHEYHQTTINNVRQAAAELGVNIAIALDTKGPEIRTGQFVGGDAVMERGATCYVTTDPAFADKGTKDKFYIDYQNLSKVVRPGNYIYIDDGILILQVQSHEDEQTLECTVTNSHTISDRRGVNLPGCDVDLPAVSAKDRVDLQFGVEQGVDMIFASFIRSAEQVGDVRKALGPKGRDIMIICKIENHQGVQNIDSIIEESDGIMVARGDLGVEIPAEKVVVAQKILISKCNVAGKPVICATQMLESMTYNPRPTRAEVSDVANAVFNGADCVMLSGETAKGKYPNEVVQYMARICLEAQSALNEYVFFNSIKKLQHIPMSADEAVCSSAVNSVYETKAKAMVVLSNTGRSARLVAKYRPNCPIVCVTTRLQTCRQLNITQGVESVFFDADKLGHDWGKEHRVAAGVEFAKSKGYVQTGDYCVVIHADHKVKGYANQTRILLVE	soluble
